Molecular target: human neutrophil elastase (human) (UniProt P08246)
Assay: cell-based or functional assay
Conditions: scale: moles of AAT polypeptide per mole of protease

Chain of UniProt P08246 (P08246 30-247 limits assumed): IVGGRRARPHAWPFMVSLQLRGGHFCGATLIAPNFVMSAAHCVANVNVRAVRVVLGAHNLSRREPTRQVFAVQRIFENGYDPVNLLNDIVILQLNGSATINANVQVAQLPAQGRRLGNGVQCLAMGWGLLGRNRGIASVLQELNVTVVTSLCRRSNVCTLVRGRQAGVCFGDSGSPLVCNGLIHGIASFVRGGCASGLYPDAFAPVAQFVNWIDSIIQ

Row | Substance | SI against HNE (n = 3)
1 | Breach graft (wtAAT carrying S276K, T278E, T323E, D325N, K327E) (from UniProt P01009 41-418) | 1.09
2 | F35 graft (wtAAT carrying L275F, I324V, M358I) (from UniProt P01009 41-418) | 1.11
3 | Helix-F graft (wtAAT carrying G99A, Y144W, Y171A) (from UniProt P01009 41-418) | 1.35

Reference: patent US20250092119A1
